Key:
[1] = biological target: short-chain dehydrogenase/reductase from Serratia marcescens BCRC 10948 (Serratia marcescens BCRC 10948); assay: SEC; size-exclusion chromatography of the purified SmSDR; single peak; conditions not given
[2] = biological target: short-chain dehydrogenase/reductase from Serratia marcescens BCRC 10948 (Serratia marcescens BCRC 10948); assay: crystal structure; apo form, 1.47 Å, space group P4(1)2(1)2; sitting drop, 20 °C, 50 mM HEPES pH 7.0, 40% tacsimate pH 7.0, 2 mM spermine, 2 mM hexamine cobalt (III) chloride; homodimer AB in the asymmetric unit, tetramer by two-fold crystallographic symmetry

stoichiometry N [1]: 4
stoichiometry N [2]: 4
Substance: short-chain dehydrogenase/reductase from Serratia marcescens BCRC 10948 (enzyme)

Reference: publication PMC5797133
